{
  "source": "paper PMC4686654",
  "about": "“A molecular ruler regulates cytoskeletal remodelling by the Rho kinases” (Nature Communications, 2015)",
  "binders": {"B1": {"name": "human ROCK2 (Rho-associated coiled-coil kinase 2), full-length recombinant (enzyme)", "chain": "MPGAPETAPGDGAGASRQRKLEALIRDPRSPINVESLLDGLNSLVLDLDFPALRKNKNIDNFLNRYEKIVKKIRGLQMKAEDYDVVKVIGRGAFGEVQLVRHKASQKVYAMKLLSKFEMIKRSDSAFFWEERDIMAFANSPWVVQLFYAFQDDRYLYMVMEYMPGGDLVNLMSNYDVPEKWAKFYTAEVVLALDAIHSMGLIHRDVKPDNMLLDKHGHLKLADFGTCMKMDETGMVHCDTAVGTPDYISPEVLKSQGGDGFYGRECDWWSVGVFLYEMLVGDTPFYADSLVGTYSKIMDHKNSLCFPEDAEISKHAKNLICAFLTDREVRLGRNGVEEIRQHPFFKNDQWHWDNIRETAAPVVPELSSDIDSSNFDDIEDDKGDVETFPIPKAFVGNQLPFIGFTYYRENLLLSDSPSCRETDSIQSRKNEESQEIQKKLYTLEEHLSNEMQAKEELEQKCKSVNTRLEKTAKELEEEITLRKSVESALRQLEREKALLQHKNAEYQRKADHEADKKRNLENDVNSLKDQLEDLKKRNQNSQISTEKVNQLQRQLDETNALLRTESDTAARLRKTQAESSKQIQQLESNNRDLQDKNCLLETAKLKLEKEFINLQSALESERRDRTHGSEIINDLQGRICGLEEDLKNGKILLAKVELEKRQLQERFTDLEKEKSNMEIDMTYQLKVIQQSLEQEEAEHKATKARLADKNKIYESIEEAKSEAMKEMEKKLLEERTLKQKVENLLLEAEKRCSLLDCDLKQSQQKINELLKQKDVLNEDVRNLTLKIEQETQKRCLTQNDLKMQTQQVNTLKMSEKQLKQENNHLMEMKMNLEKQNAELRKERQDADGQMKELQDQLEAEQYFSTLYKTQVRELKEECEEKTKLGKELQQKKQELQDERDSLAAQLEITLTKADSEQLARSIAEEQYSDLEKEKIMKELEIKEMMARHKQELTEKDATIASLEETNRTLTSDVANLANEKEELNNKLKDVQEQLSRLKDEEISAAAIKAQFEKQLLTERTLKTQAVNKLAEIMNRKEPVKRGNDTDVRRKEKENRKLHMELKSEREKLTQQMIKYQKELNEMQAQIAEESQIRIELQMTLDSKDSDIEQLRSQLQALHIGLDSSSIGSGPGDAEADDGFPESRLEGWLSLPVRNNTKKFGWVKKYVIVSSKKILFYDSEQDKEQSNPYMVLDIDKLFHVRPVTQTDVYRADAKEIPRIFQILYANEGESKKEQEFPVEPVGEKSNYICHKGHEFIPTLYHFPTNCEACMKPLWHMFKPPPALECRRCHIKCHKDHMDKKEEIIAPCKVYYDISTAKNLLLLANSTEEQQKWVSRLVKKIPKKPPAPDPFARSSPRTSMKIQQNQSIRRPSRQLAPNKPS", "modifications": "mono- and diphosphorylated species, two adjacent serines (1,352-1,353)"}, "B2": {"name": "human ROCK2 1-408 (kinase domain alone) (domain or fragment)", "chain": "MPGAPETAPGDGAGASRQRKLEALIRDPRSPINVESLLDGLNSLVLDLDFPALRKNKNIDNFLNRYEKIVKKIRGLQMKAEDYDVVKVIGRGAFGEVQLVRHKASQKVYAMKLLSKFEMIKRSDSAFFWEERDIMAFANSPWVVQLFYAFQDDRYLYMVMEYMPGGDLVNLMSNYDVPEKWAKFYTAEVVLALDAIHSMGLIHRDVKPDNMLLDKHGHLKLADFGTCMKMDETGMVHCDTAVGTPDYISPEVLKSQGGDGFYGRECDWWSVGVFLYEMLVGDTPFYADSLVGTYSKIMDHKNSLCFPEDAEISKHAKNLICAFLTDREVRLGRNGVEEIRQHPFFKNDQWHWDNIRETAAPVVPELSSDIDSSNFDDIEDDKGDVETFPIPKAFVGNQLPFIGFTYYR", "modifications": "paper residues 1-408 on the 1,379-residue form = O75116 10-417; activation loop not phosphorylated; constitutive dimer; tag cleaved / paper residues 1-408 on the 1,379-residue form = O75116 10-417 …"}, "B3": {"name": "RBD fragment of human ROCK1 (947-1,015) (domain or fragment, UniProt Q13464 947-1015, looked up)", "chain": "MLTKDIEILRRENEELTEKMKKAEEEYKLEKEEEISNLKAAFEKNINTERTLKTQAVNKLAEIMNRKDF", "notes": "also called ROCK1 RBD; source: E. coli BL21 (DE3), purified (NiNTA, Superdex 75)"}, "B4": {"name": "RBD fragment of human ROCK2 (977-1,047) (domain or fragment)", "chain": "TLTSDVANLANEKEELNNKLKDVQEQLSRLKDEEISAAAIKAQFEKQLLTERTLKTQAVNKLAEIMNRKEP", "modifications": "none; His6 tag omitted. The limits are read in O75116 numbering: the fragment is said to match the crystal-structure RBD, and ROCK1 947-1015 (RhoBD 949-1015) aligns with O75116 979-1047 (RhoBD), so …"}},
  "key": {"[1]": {"target": "the molecule itself", "test": "static light scattering; recombinant ROCK2 in solution; mass 327 kDa, polydispersity index 1.000"}, "[2]": {"target": "human ROCK2 1-408 (kinase domain alone) (human)", "test": "not stated; recombinant catalytic domain in solution", "settings": "both partners purified"}, "[3]": {"target": "the molecule itself", "test": "SEC; Superdex 75 in 20 mM Tris pH 7.5, 100 mM NaCl, 1 mM TCEP, 4 mM MgCl2"}, "[4]": {"target": "T1, RBD fragment of human ROCK2 (977-1,047) (human, UniProt O75116 977-1047)", "T1 chain": "B4 chain", "test": "SEC; Superdex 75 in 20 mM Tris pH 7.5, 100 mM NaCl, 1 mM TCEP, 4 mM MgCl2", "settings": "both partners purified"}},
  "data": [
    {"binder": "B1", "values": [
      {"measurement": "stoichiometry N", "setting": "[1]", "value": 2}
    ]},
    {"binder": "B2", "values": [
      {"measurement": "stoichiometry N", "setting": "[2]", "value": 2}
    ]},
    {"binder": "B3", "values": [
      {"measurement": "stoichiometry N", "setting": "[3]", "value": 2}
    ]},
    {"binder": "B4", "values": [
      {"measurement": "stoichiometry N", "setting": "[4]", "value": 2}
    ]}
  ]
}
